According to patent US20240352096A1 (KANGLIN BIOTECHNOLOGY HANGZHOU, published 2024):

B1: Anti-HIV amphotropic neutralizing antibody-like molecule KL-BsHIV01-02 (bispecific antibody)
chain: SELTQDPAVSVALKQTVTITCRGDSLRSHYASWYQKKPGQAPVLLFYGKNNRPSGIPDRFSGSASGNRASLTITGAQAEDEADYYCSSRDKSGSRLSVFGGGTKLTVLGGGGSGGGGSGGGGSEVRLRESGGGLVKPGGSLRLSCSASGFDFDNAWMTWVRQPPGKGLEWVGRITGPGEGWSVDYAESVKGRFTISRDNTKNTLYLEMNNVRTEDTGYYFCARTGKYYDFWFGYPPGEEYFQDWGQGTLVIVSSGGGGSGGGGSGGGGSGGGGSGGGGSDIVMTQSPDSLAVSLGERVTMNCKSSQSLLYSTNQKNYLAWYQQKPGQSPKLLIYWASTRESGVPDRFSGSGSGTDFTLTISSVQAEDVAVYYCQQYYSYRTFGGGTKLEIKRTVAGGGGSGGGGSGGGGSQVQLQQSGPEVVKPGASVKMSCKASGYTFTSYVIHWVRQKPGQGLDWIGYINPYNDGTDYDEKFKGKATLTSDTSTSTAYMELSSLRSEDTAVYYCAREKDNYATGAWFAYWGQGTLVTVSS
B2: Anti-HIV tritropic neutralizing antibody-like molecule KL-BsHIV01-003-02 (other)
chain: SELTQDPAVSVALKQTVTITCRGDSLRSHYASWYQKKPGQAPVLLFYGKNNRPSGIPDRFSGSASGNRASLTITGAQAEDEADYYCSSRDKSGSRLSVFGGGTKLTVLGGGGSGGGGSGGGGSEVRLRESGGGLVKPGGSLRLSCSASGFDFDNAWMTWVRQPPGKGLEWVGRITGPGEGWSVDYAESVKGRFTISRDNTKNTLYLEMNNVRTEDTGYYFCARTGKYYDFWFGYPPGEEYFQDWGQGTLVIVSSGGGGSGGGGSGGGGSGGGGSGGGGSDIVMTQSPDSLAVSLGERVTMNCKSSQSLLYSTNQKNYLAWYQQKPGQSPKLLIYWASTRESGVPDRFSGSGSGTDFTLTISSVQAEDVAVYYCQQYYSYRTFGGGTKLEIKRTVAGGGGSGGGGSGGGGSQVQLQQSGPEVVKPGASVKMSCKASGYTFTSYVIHWVRQKPGQGLDWIGYINPYNDGTDYDEKFKGKATLTSDTSTSTAYMELSSLRSEDTAVYYCAREKDNYATGAWFAYWGQGTLVTVSSGGGGSGGGGSGGGGSGGGGSGGGGSWEQKIEELLKKAEEQQKKNEEELKKLEK

Experiments:
Assay in all cases: cell-based or functional assay
[1] = target: T1, HIV-1 envelope protein of HIV-1 strain pAD-8 (CCR5 tropism) (HIV-1 strain pAD-8)
[2] = target: T2, HIV-1 envelope protein of HIV-1 strain pNL4-3 (CXCR4 tropism) (HIV-1 strain pNL4-3)
[3] = target: T1, HIV-1 envelope protein of HIV-1 strain …; remark: listed apart in the source
[4] = target: T2, HIV-1 envelope protein of HIV-1 strain …; remark: listed apart in the source
[5] = target: T1, HIV-1 envelope protein of HIV-1 strain …; remark: listed apart in the source
[6] = target: T2, HIV-1 envelope protein of HIV-1 strain …; remark: listed apart in the source

Binder | Neutralization percentage; AAV vector-transduced C2C12 supernatant, antibody concentration 2.5 ng/ml; TZM-bl luciferase [1] [%] | Neutralization percentage; AAV vector-transduced C2C12 supernatant, antibody concentration 5 ng/ml; TZM-bl luciferase [1] [%] | Neutralization percentage; AAV vector-transduced C2C12 supernatant, antibody concentration 10 ng/ml; TZM-bl luciferase [1] [%] | Neutralization percentage; AAV vector-transduced C2C12 supernatant, antibody concentration 2.5 ng/ml; TZM-bl luciferase [2] [%] | Neutralization percentage; AAV vector-transduced C2C12 supernatant, antibody concentration 5 ng/ml; TZM-bl luciferase [2] [%] | Neutralization percentage; AAV vector-transduced C2C12 supernatant, antibody concentration 10 ng/ml; TZM-bl luciferase [2] [%] | Neutralization percentage; serum of mice injected with AAV vector, serum stock volume 0.005 uL; TZM-bl luciferase [3] [%] | Neutralization percentage; serum of mice injected with AAV vector, serum stock volume 0.05 uL; TZM-bl luciferase [3] [%] | Neutralization percentage; serum of mice injected with AAV vector, serum stock volume 0.5 uL; TZM-bl luciferase [3] [%] | Neutralization percentage; serum of mice injected with AAV vector, serum stock volume 0.005 uL; TZM-bl luciferase [4] [%] | Neutralization percentage; serum of mice injected with AAV vector, serum stock volume 0.05 uL; TZM-bl luciferase [4] [%] | Neutralization percentage; serum of mice injected with AAV vector, serum stock volume 0.5 uL; TZM-bl luciferase [4] [%] | IC50 for neutralizing HIV-1 strain pAD-8 (CCR5 tropism); purified antibody, TZM-bl luciferase [5] [pM] | IC50 for neutralizing HIV-1 strain pNL4-3 (CXCR4 tropism); purified antibody, TZM-bl luciferase [6] [pM]
B1 | 100 | 100 | 100 | 100 | 101 | 100 | -15.7 | -4.43 | 81.7 | 27.7 | 79 | 100 |  | 
B2 | 100 | 100 | 100 | 101 | 101 | 100 | -11.7 | -6.85 | 62.5 | 23.4 | 56.7 | 99.4 | 3.1 | 0.2
